Assays:
Experiment in all cases: cell_activity
Conditions in all cases: H358 cells, 50 ng plasmid
[1] = molecular target: wild-type p53 (Homo sapiens) (UniProt P04637)
[2] = tested on: V-325 (VP16-75-325-lz) (Homo sapiens / herpes simplex virus chimera)
[3] = tested on: V-336 (VP16-75-336-lz) (Homo sapiens / herpes simplex virus chimera)

wild-type p53 (Homo sapiens), sequence (P04637 whole entry): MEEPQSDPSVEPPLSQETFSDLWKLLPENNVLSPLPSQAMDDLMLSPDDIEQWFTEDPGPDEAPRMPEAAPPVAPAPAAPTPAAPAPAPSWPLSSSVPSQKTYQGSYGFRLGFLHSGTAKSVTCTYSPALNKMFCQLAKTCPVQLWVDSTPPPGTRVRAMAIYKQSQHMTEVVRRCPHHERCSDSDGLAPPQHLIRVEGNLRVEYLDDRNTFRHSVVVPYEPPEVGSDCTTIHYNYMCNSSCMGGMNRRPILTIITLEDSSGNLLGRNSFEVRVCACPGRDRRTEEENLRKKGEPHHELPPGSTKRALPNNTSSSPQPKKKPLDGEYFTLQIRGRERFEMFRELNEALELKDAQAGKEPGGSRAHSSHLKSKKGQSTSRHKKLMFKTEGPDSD

p53RE consensus CAT reporter was tested, and the activity (relative CAT activity (vector=1)) [1] was 6, the activity (relative CAT activity (vector=1)) [2] was 25 and the activity (relative CAT activity (vector=1)) [3] was 16.

Source: patent US6326464
